Experimental data reported in patent publication US12227570B2, “Anti-CEACAM6 antibodies and methods of use” (Singapore Health Services PTE LTD, priority 2016, dated 2025).
Several values for one entry are separate records, joined by “and”; a condition that tells them apart may be missing. Identical values can stand only once. Entries after “also recorded” stand apart in the source; their conditions may differ.

Tests used:
[1] = test system: A549−GR6A04+ cells; experiment: Subcutaneous xenograft model; assay type: in vivo, NCr Nude mice; conditions: for tumour growth versus buffer control: 10 mg/kg, 3 doses on D0, D4 and D8, start at tumour size >150 mm3
Description: Xenograft models were established using A549−GR6A04+ cells in NCr Nude mice. 5E6 cells in DMEM basal media were mixed at a 1:1 ratio with Matrigel, and injected subcutaneously at a volume of 200 μl. Tumours were allowed to form and reach a size of >150 mm^3, before they were randomised into 5 groups of 5 mice each. The groups were treated with mAbs as follows: (1) Buffer control; (2) GR6A04-MMAE; (3) Hu-GR6A04; (4) GR6A04; (5) MG1.45-MMAE isotype control. mAbs were injected via tail vein injection at a total volume of 100 μl. Each dose, were applicable, is at 200 μg (equivalent to 10 mg/kg), and treatment was done every 4 days, for a total of 3 doses (Day 0, 4 and 8). Tumour size was monitored over 50 days.

[2] = test system: PC-9 and A549 cells; experiment: Flow cytometry binding of GR6A04 derivatives; assay type: cell-based
Description: Cells were harvested as single cell suspensions using trypsin. 1E5 cells were used per sample, and incubated with 100 μl of mAb culture supernatant for 30 min. Cells were then washed with 1% bovine serum albumin in PBS, and further incubated with 100 μl of goat anti-mouse antibody fluorescein isothiocyanate (FITC)-conjugated (1:500, DAKO, Denmark) for 15 min at 4° C. in the dark. Cells were again washed and resuspended in 200 μL of 1% BSA/PBS for analysis on Guava® easy Cyte 8HT Benchtop Flow Cytometer (Merck Millipore, USA). For interrogation of […] binding, cells were fixed with 4% PFA/PBS (Affymetrix, USA) at room temperature for 10 min, washed in PBS, and permeabilised with 0.1% triton/PBS for 5 min at room temperature, before proceeding with incubation with mAb supernatant/primary antibody. For staining with propidium iodide, PI was added to a final concentration of 5 μg/mL for 5 min just prior to analysis by the flow cytometer.

[3] = test system: PC-9; experiment: ADC dose-response, CellTiter-Glo viability assay; assay type: cell-based; conditions: viability 4 days post treatment
Description: (§1) Cells were seeded into a black coated 96 well plate (Grenier Bio-one, UK) at a range of density from 1000-5000 cells per well (depending on the cell type used) and 90 μL per well. The plate was then incubated for 24 hours at 37° C. in humidified air with 5% CO2. After 24 hours, 10 μL of mAb or buffer was added to each well and the plate was again placed at 37° C. in humidified air with 5% CO2. 4 days after addition of mAb or buffer, 100 μL of CTG substrate (Promega, Wisconsin, USA) was added to each well. The plate was then left in the dark for 10 minutes, with vigorous shaking. The cell viability of the samples was then quantified using Tecan I-control (Tecan, Switzerland).
(§2) GR6A04 and a commercial mouse IgG1 isotype antibody (Clone MG1.45 from BioLegend) were directly conjugated with MMAE toxin (Moradec, San Diego, USA) at a DAR of 3.0 and 3.3 respectively. Dose-response curve for the conjugated mAbs were established with the CTG assay with a serial dilution range of 0 to 4.5 μg/ml. The cell viability of the cells was measure 4 days post treatment as described previously.

[4] = test system: A549−GR6A04+ cells; experiment: ADC dose-response, CellTiter-Glo viability assay; assay type: cell-based; conditions: viability 4 days post treatment
Description: as §1, §2

[5] = test system: H1299; experiment: ADC dose-response, CellTiter-Glo viability assay; assay type: cell-based; conditions: H1299 non-binding cells
Description: as §1, §2

[6] = test system: A549−GR6A04− populations; experiment: ADC dose-response, CellTiter-Glo viability assay; assay type: cell-based; conditions: A549−GR6A04− non-binding cells
Description: as §1, §2

[7] = biological target: PC-9; experiment: ADCC reporter bioassay (Promega, Luciferase reporter for FcγR); assay type: cell-based
Description: (§3) ADCC activity was measured using a reporter bioassay (Promega; ADCC Reporter Bioassay, #G7010). The ADCC bioassay was carried out according to the manufacturer's protocol Briefly, PC-9 and A549 cells were seeded at 5,000 cells per well in a 96-well clear bottom black tissue culture plates (Corning; #3904) in low 4% IgG-serum (Promega; #G711A) media and allowed to attach and spread overnight. Serial dilutions of Hu-GR6A04 were incubated in triplicate wells for approximately 15 min at 37° C., 5% CO2. Following incubation, engineered effector cells were added to the wells at approximately 150,000 cells per well. After 6 hours, Bio-Glo™ Luciferase Assay Substrate (Promega; #G719A and #G720A) was added to the wells and luminescence was measured using the Infinite® 200 microplate reader (Tecan).

[8] = biological target: A549−GR6A04+; experiment: as above; assay type: cell-based
Description: as §3

B1: GR6A04-MMAE (conjugate)
VH: SGPELVKPGASVKMSCKASGNTFTSYVMHWVKQKPGQGLEWIGYINPYNDGTKYNEKFKGKATLTSDKSSSTAYMELSSLTSEDSAVYYCARSTARATPYFYAMDYWGQGTSVTVSS
VL: DILMTQSPSSLAVTAGEKVTMRCKSSQSLLWSVNQNSYLSWYQLKQGQPPKLLLYGASIRESWVPDRFTGSGSGTDFTLTISNVHVEDLAVYYCQHNHGSFLPYTFGGGTKLEIK
tumour growth versus buffer control [1]: little tumour growth
tumour growth ([1]; I.V. 10 mg/kg, every 4 days for 3 doses, throughout the 45 days of study): < 2 fold
flow cytometry binding [2]: comparable to unconjugated GR6A04; also recorded: not affected after conjugation
EC50 [3]: 19.8 nM and 19.6 nM
EC50 [4]: 3.33 nM
effect on cell growth [5]: did not have an effect on cell growth
effect on cell growth [6]: did not have an effect on cell growth

B2: Hu-GR6A04: human chimeric mAb with GR6A04 VH and VL cloned into a human Ig constant region backbone, expressed in CHO cells (antibody, V domains shown)
VH: SGPELVKPGASVKMSCKASGNTFTSYVMHWVKQKPGQGLEWIGYINPYNDGTKYNEKFKGKATLTSDKSSSTAYMELSSLTSEDSAVYYCARSTARATPYFYAMDYWGQGTSVTVSS
VL: DILMTQSPSSLAVTAGEKVTMRCKSSQSLLWSVNQNSYLSWYQLKQGQPPKLLLYGASIRESWVPDRFTGSGSGTDFTLTISNVHVEDLAVYYCQHNHGSFLPYTFGGGTKLEIK
tumour growth versus buffer control [1]: repression of tumour growth; also recorded: slower growth compared to the buffer control
EC50 [7]: 39.6 nM
EC50 [8]: 1.33 nM
flow cytometry binding [2]: comparable to GR6A04
